For the assay, the target named is bovine mitochondrial F1-ATPase β subunit (His-tagged) (bovine, UniProt P00829 47-528). The experiment in a line: dilution and ultrafiltration.
bovine mitochondrial F1-ATPase β subunit (His-tagged), sequence (P00829 47-528): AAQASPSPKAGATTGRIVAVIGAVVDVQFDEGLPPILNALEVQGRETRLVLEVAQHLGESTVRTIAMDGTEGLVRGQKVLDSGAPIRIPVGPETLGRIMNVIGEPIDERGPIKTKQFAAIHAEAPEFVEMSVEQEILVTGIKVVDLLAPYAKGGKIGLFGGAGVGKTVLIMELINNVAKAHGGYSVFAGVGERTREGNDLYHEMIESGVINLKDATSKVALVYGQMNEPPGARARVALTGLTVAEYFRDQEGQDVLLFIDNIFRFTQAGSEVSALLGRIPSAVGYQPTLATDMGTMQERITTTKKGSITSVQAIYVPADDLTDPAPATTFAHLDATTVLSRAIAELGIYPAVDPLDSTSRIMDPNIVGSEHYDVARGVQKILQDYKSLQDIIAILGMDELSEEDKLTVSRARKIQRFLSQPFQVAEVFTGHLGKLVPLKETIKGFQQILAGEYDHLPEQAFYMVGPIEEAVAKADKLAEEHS

B1: bovine mitochondrial F1-ATPase ε subunit (natural protein)
chain: MVAYWRQAGLSYIRYSQICAKAVRDALKTEFKANAMKTSGSTIKIVKVKKE
On to B1, for which the binding result is reported as “binds”.

B2: bovine mitochondrial F1-ATPase γ subunit (γA99C, γS191C) (natural protein)
chain: ATLKDITRRLKSIKNIQKITKSMKMVAAAKYARAERELKPARVYGVGSLALYEKADIKTPEDKKKHLIIGVSSDRGLCGAIHSSVAKQMKSEAANLAACGKEVKIIGVGDKIRSILHRTHSDQFLVTFKEVGRRPPTFGDASVIALELLNSGYEFDEGSIIFNRFRSVISYKTEEKPIFSLDTISSAESMCIYDDIDADVLRNYQEYSLANIIYYSLKESTTSEQSARMTAMDNASKNASEMIDKLTLTFNRTRQAVITKELIEIISGAAALD
For the molecule B2, the binding result is on record as “binds”.

Values taken from paper PMC6983367 (Proceedings of the National Academy of Sciences of the …, 2020).
